Measurements reported in patent US20260242735A1 (UNIVERSIT T BASEL, published 2026).

Tests used:
human wild-type CD33 = target: T1, human wild-type CD33 (human, UniProt P20138 18-364); assay: flow cytometry, IgG at 0.25 ug/ml on HEK293-T cells expressing CD33 against vector alone
T1 construct: also called SIGLEC3; P67

[1] = target: T2, CD33 variant W22R on base-edited human CD34+ HSPCs (human, UniProt P20138 18-364); assay: flow cytometry sorting and NGS of sgRNA-E base-edited human CD34+ HSPCs
T2 construct: also called sgRNA-E edited CD33
T2 sequence (P20138 18-364 W22R limits assumed): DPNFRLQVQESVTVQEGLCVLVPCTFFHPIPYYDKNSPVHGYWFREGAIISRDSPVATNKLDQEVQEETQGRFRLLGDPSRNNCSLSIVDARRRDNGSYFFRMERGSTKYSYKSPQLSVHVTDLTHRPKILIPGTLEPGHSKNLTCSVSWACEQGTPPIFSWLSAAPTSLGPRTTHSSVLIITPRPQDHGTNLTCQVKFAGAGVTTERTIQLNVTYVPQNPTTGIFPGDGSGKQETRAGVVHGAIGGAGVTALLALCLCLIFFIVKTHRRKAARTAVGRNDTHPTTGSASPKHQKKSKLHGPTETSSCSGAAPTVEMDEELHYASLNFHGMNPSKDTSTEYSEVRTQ

[2] = target: CD33 variant N20G (recombinant, biotinylated) (human, UniProt P20138 21-259, biotinylated with EZ-Link Sulfo-NHS-LC-Biotin (sites not given)); assay: BLI (Octet R8), avidity format: biotinylated CD33 on streptavidin sensor, Refmab #4 as analyte at 500 nM;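 also: analyte association recorded over 300 s, followed by a 900 s dissociation phase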
Sequence of CD33 variant N20G (recombinant, biotinylated) (P20138 other isoform, or with tags, fused parts or gaps N20G N20G): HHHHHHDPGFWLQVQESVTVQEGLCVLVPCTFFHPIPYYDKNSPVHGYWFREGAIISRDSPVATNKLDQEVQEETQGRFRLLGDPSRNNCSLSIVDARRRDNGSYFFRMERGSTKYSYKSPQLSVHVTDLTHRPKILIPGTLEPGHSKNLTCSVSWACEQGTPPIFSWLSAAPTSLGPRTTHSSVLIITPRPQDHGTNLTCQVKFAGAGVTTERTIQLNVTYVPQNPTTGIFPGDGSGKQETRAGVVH

[3] = target: CD33 variant Y50R (recombinant, biotinylated) (human, UniProt P20138 18-259, biotinylated with EZ-Link Sulfo-NHS-LC-Biotin (sites not given)); assay: as above
[4] = target: CD33 variant F21V (recombinant, biotinylated) (human, UniProt P20138 22-259, biotinylated with EZ-Link Sulfo-NHS-LC-Biotin (sites not given)); assay: as above
[5] = target: CD33 variant W22T (recombinant, biotinylated) (human, UniProt P20138 18-259, biotinylated with EZ-Link Sulfo-NHS-LC-Biotin (sites not given)); assay: as above
Sequence of CD33 variant W22T (recombinant, biotinylated) (P20138 other isoform, or with tags, fused parts or gaps W22T W22T): as the sequence (P20138 other isoform, or with tags, fused parts or gaps N20G N20G) above, with G9N, W11T counted along it

[6] = target: CD33 variant W22R (recombinant, biotinylated) (human, UniProt P20138 18-259, biotinylated with EZ-Link Sulfo-NHS-LC-Biotin (sites not given)); assay: as above
Sequence of CD33 variant W22R (recombinant, biotinylated) (P20138 other isoform, or with tags, fused parts or gaps W22R W22R): as the sequence (P20138 other isoform, or with tags, fused parts or gaps N20G N20G) above, with G9N, W11R counted along it

[7] = target: CD33 variant W22K (recombinant, biotinylated) (human, UniProt P20138 18-259, biotinylated with EZ-Link Sulfo-NHS-LC-Biotin (sites not given)); assay: as above
Sequence of CD33 variant W22K (recombinant, biotinylated) (P20138 other isoform, or with tags, fused parts or gaps W22K W22K): as the sequence (P20138 other isoform, or with tags, fused parts or gaps N20G N20G) above, with G9N, W11K counted along it

[8] = target: CD33 variant F21M (recombinant, biotinylated) (human, UniProt P20138 22-259, biotinylated with EZ-Link Sulfo-NHS-LC-Biotin (sites not given)); assay: as above
Sequence of CD33 variant F21M (recombinant, biotinylated) (P20138 other isoform, or with tags, fused parts or gaps F21M F21M): as the sequence (P20138 other isoform, or with tags, fused parts or gaps N20G N20G) above, with G9N, F10M counted along it

[9] = target: CD33 variant N20K (recombinant, biotinylated) (human, UniProt P20138 21-259, biotinylated with EZ-Link Sulfo-NHS-LC-Biotin (sites not given)); assay: as above
[10] = target: CD33 variant N20V (recombinant, biotinylated) (human, UniProt P20138 21-259, biotinylated with EZ-Link Sulfo-NHS-LC-Biotin (sites not given)); assay: as above
Sequence of CD33 variant N20V (recombinant, biotinylated) (P20138 other isoform, or with tags, fused parts or gaps N20V N20V): as the sequence (P20138 other isoform, or with tags, fused parts or gaps N20G N20G) above, with G9V counted along it

[11] = target: CD33 variant F21L (recombinant, biotinylated) (human, UniProt P20138 22-259, biotinylated with EZ-Link Sulfo-NHS-LC-Biotin (sites not given)); assay: as above
Sequence of CD33 variant F21L (recombinant, biotinylated) (P20138 other isoform, or with tags, fused parts or gaps F21L F21L): as the sequence (P20138 other isoform, or with tags, fused parts or gaps N20G N20G) above, with G9N, F10L counted along it

[12] = target: CD33 variant F21I (recombinant, biotinylated) (human, UniProt P20138 22-259, biotinylated with EZ-Link Sulfo-NHS-LC-Biotin (sites not given)); assay: as above
Sequence of CD33 variant F21I (recombinant, biotinylated) (P20138 other isoform, or with tags, fused parts or gaps F21I F21I): as the sequence (P20138 other isoform, or with tags, fused parts or gaps N20G N20G) above, with G9N, F10I counted along it

[13] = target: T3, CD33 wild type (recombinant, biotinylated) (human, UniProt P20138 18-259, biotinylated with EZ-Link Sulfo-NHS-LC-Biotin (sites not given)); assay: as above
T3 construct: also called WT; CD33 wt
T3 sequence (P20138 other isoform, or with tags, fused parts or gaps): as the sequence (P20138 other isoform, or with tags, fused parts or gaps N20G N20G) above, with G9N counted along it

[14] = target: CD33 variant F21Q (recombinant, biotinylated) (human, UniProt P20138 22-259, biotinylated with EZ-Link Sulfo-NHS-LC-Biotin (sites not given)); assay: as above
[15] = target: CD33 variant W22E (recombinant, biotinylated) (human, UniProt P20138 18-259, biotinylated with EZ-Link Sulfo-NHS-LC-Biotin (sites not given)); assay: as above
Sequence of CD33 variant W22E (recombinant, biotinylated) (P20138 other isoform, or with tags, fused parts or gaps W22E W22E): as the sequence (P20138 other isoform, or with tags, fused parts or gaps N20G N20G) above, with G9N, W11E counted along it

[16] = target: CD33 variant F44P (recombinant, biotinylated) (human, UniProt P20138 18-259, biotinylated with EZ-Link Sulfo-NHS-LC-Biotin (sites not given)); assay: as above
[17] = target: CD33 variant F21H (recombinant, biotinylated) (human, UniProt P20138 22-259, biotinylated with EZ-Link Sulfo-NHS-LC-Biotin (sites not given)); assay: as above
[18] = target: CD33 variant Y50D (recombinant, biotinylated) (human, UniProt P20138 18-259, biotinylated with EZ-Link Sulfo-NHS-LC-Biotin (sites not given)); assay: as above
Sequence of CD33 variant Y50D (recombinant, biotinylated) (P20138 other isoform, or with tags, fused parts or gaps Y50D Y50D): as the sequence (P20138 other isoform, or with tags, fused parts or gaps N20G N20G) above, with G9N, Y39D counted along it

[19] = target: CD33 variant F21S (recombinant, biotinylated) (human, UniProt P20138 22-259, biotinylated with EZ-Link Sulfo-NHS-LC-Biotin (sites not given)); assay: as above
[20] = target: CD33 variant F21N (recombinant, biotinylated) (human, UniProt P20138 22-259, biotinylated with EZ-Link Sulfo-NHS-LC-Biotin (sites not given)); assay: as above
[21] = target: CD33 variant W22D (recombinant, biotinylated) (human, UniProt P20138 18-259, biotinylated with EZ-Link Sulfo-NHS-LC-Biotin (sites not given)); assay: as above
Sequence of CD33 variant W22D (recombinant, biotinylated) (P20138 other isoform, or with tags, fused parts or gaps W22D W22D): as the sequence (P20138 other isoform, or with tags, fused parts or gaps N20G N20G) above, with G9N, W11D counted along it

[22] = target: CD33 variant N20H (recombinant, biotinylated) (human, UniProt P20138 21-259, biotinylated with EZ-Link Sulfo-NHS-LC-Biotin (sites not given)); assay: as above
Sequence of CD33 variant N20H (recombinant, biotinylated) (P20138 other isoform, or with tags, fused parts or gaps N20H N20H): as the sequence (P20138 other isoform, or with tags, fused parts or gaps N20G N20G) above, with G9H counted along it

[23] = target: CD33 double variant Y50H_H49H (recombinant, biotinylated) (human, UniProt P20138 18-259, biotinylated with EZ-Link Sulfo-NHS-LC-Biotin (sites not given)); assay: as above
Sequence of CD33 double variant Y50H_H49H (recombinant, biotinylated) (P20138 other isoform, or with tags, fused parts or gaps Y50H H49H Y50H H49H): as the sequence (P20138 other isoform, or with tags, fused parts or gaps N20G N20G) above, with G9N, Y38H, Y39H counted along it

[24] = target: CD33 variant Y50K (recombinant, biotinylated) (human, UniProt P20138 18-259, biotinylated with EZ-Link Sulfo-NHS-LC-Biotin (sites not given)); assay: as above
Sequence of CD33 variant Y50K (recombinant, biotinylated) (P20138 other isoform, or with tags, fused parts or gaps Y50K Y50K): as the sequence (P20138 other isoform, or with tags, fused parts or gaps N20G N20G) above, with G9N, Y39K counted along it

[25] = target: CD33 variant N20E (recombinant, biotinylated) (human, UniProt P20138 21-259, biotinylated with EZ-Link Sulfo-NHS-LC-Biotin (sites not given)); assay: as above
Sequence of CD33 variant N20E (recombinant, biotinylated) (P20138 other isoform, or with tags, fused parts or gaps N20E N20E): as the sequence (P20138 other isoform, or with tags, fused parts or gaps N20G N20G) above, with G9E counted along it

T1 sequence (P20138 18-364 limits assumed): as the sequence (P20138 18-364 W22R limits assumed) above, with R5W counted along it

B1: Refmab #3 (antibody, V domains shown)
VH: QVQLVQSGAEVKKPGSSVKVSCKASGYTFTDYNMHWVRQAPGQGLEWIGYIYPYNGGTGYNQKFKSKATITADESTNTAYMELSSLRSEDTAVYYCARGRPAMDYWGQGTLVTVSS
VL: DIQMTQSPSSLSASVGDRVTITCRASESVDNYGISFMNWFQQKPGKAPKLLIYAASNQGSGVPSRFSGSGSGTDFTLTISSLQPDDFATYYCQQSKEVPWTFGQGTKVEIK
notes: Full-length MAb format, human IgG1 Fc silent (PG-LALA)
Signal:Background (human wild-type CD33): 35 signal:background ratio | binding result [1]: no binding

B2: Refmab #4 (antibody, human IgG1, V domains shown)
VH: QVQLVQSGAEVKKPGESVKVSCKASGYTFTNYGMNWVKQAPGQGLEWMGWINTYTGEPTYADKFQGRVTMTTDTSTSTAYMEIRNLGGDDTAVYYCARWSWSDGYYVYFDYWGQGTSVTVSS
VL: DIVMTQSPDSLTVSLGERTTINCKSSQSVLDSSTNKNSLAWYQQKPGQPPKLLLSWASTRESGIPDRFSGSGSGTDFTLTIDSPQPEDSATYYCQQSAHFPITFGQGTRLEIK
% WT binding [2]: 89 % WT binding | % WT binding [3]: 0 % WT binding | % WT binding [4]: 96 % WT binding | % WT binding [5]: 100 % WT binding | % WT binding [6]: 87.2 % WT binding | % WT binding [7]: 99.3 % WT binding | % WT binding [8]: 122 % WT binding | % WT binding [9]: 79.4 % WT binding | % WT binding [10]: 99.5 % WT binding | % WT binding [11]: 88.3 % WT binding | % WT binding [12]: 91 % WT binding | % WT binding [13]: 100 % WT binding | % WT binding [14]: 122 % WT binding | % WT binding [15]: 136 % WT binding | % WT binding [16]: 73.9 % WT binding | % WT binding [17]: 103 % WT binding | % WT binding [18]: 0 % WT binding | % WT binding [19]: 106 % WT binding | % WT binding [20]: 108 % WT binding | % WT binding [21]: 129 % WT binding | % WT binding [22]: 87.7 % WT binding | % WT binding [23]: 0 % WT binding | % WT binding [24]: 0 % WT binding | % WT binding [25]: 111 % WT binding
